Patent publication US5914254

Key:
[1] = biological target: native dsbA (with leader)-biotinylation peptide (pDM25453) (E. coli) (UniProt P0AEG4)
[2] = biological target: insulin substrate
[3] = biological target: 125I-radiolabeled IGF-I; assay: dot blot of serial dilutions of crude soluble fractions probed with 125I-IGF-I; tells of the amount of active protein, not of affinity

Oxidoreductase Activity of DsbA, Activity (U/min-mg), TEX fraction [2] [U/min-mg] | further results | Substance
 | efficiency of in vivo biotinylation of the Ni-NTA purified proteins of pDM25450 and pDM25453 [1]: < 10 fold | E. coli biotin holoenzyme synthetase (from UniProt P06709)
0.1 |  | leaderless E. coli DsbA (pYZ9206) (from UniProt P0AEG4) (enzyme)
 | fold increase in the recovery of bioactive IGFBP-3 (IGF-I binding activity of the crude extract, against the ubiquitin-IGFBP-3 fusion) [3]: 16 fold | DsbA-ubiquitin-IGFBP-3 fusion (pDM15427) (from UniProt P0AEG4)
0.089 |  | E. coli DsbA expressed with its leader sequence (pYZ9205) (from UniProt P0AEG4) (enzyme)
